Numbering of substitutions follows the chain as printed. Names and notes keep the numbering of the source.

The results in this text go back to patent US20200079848A1 (Five Prime, published 2020).

The target in test [1] is T1, human ILT4 (hILT4) expressed on cells (human, UniProt Q8N423 22-597).
T1 construct: hILT4 on transfected CHO or 293T cells, or native on human monocytes and macrophages; also called LILRB2
Put plainly: flow cytometry on hILT4-transfected CHO cells, MFI (PE); EC50 from the table beside the graph; the table has no unit, the concentration axis is in ug/mL. A general note: In flow cytometry, cells or beads pass a laser one at a time.

The target in test [2] is T2, hILT4-His-Avi tag (human, UniProt Q8N423 22-459).
T2 construct: also called monomeric human ILT4; extracellular region of hILT4 linked to a His-Avi tag
T2 sequence (Q8N423 other isoform, or with tags, fused parts or gaps): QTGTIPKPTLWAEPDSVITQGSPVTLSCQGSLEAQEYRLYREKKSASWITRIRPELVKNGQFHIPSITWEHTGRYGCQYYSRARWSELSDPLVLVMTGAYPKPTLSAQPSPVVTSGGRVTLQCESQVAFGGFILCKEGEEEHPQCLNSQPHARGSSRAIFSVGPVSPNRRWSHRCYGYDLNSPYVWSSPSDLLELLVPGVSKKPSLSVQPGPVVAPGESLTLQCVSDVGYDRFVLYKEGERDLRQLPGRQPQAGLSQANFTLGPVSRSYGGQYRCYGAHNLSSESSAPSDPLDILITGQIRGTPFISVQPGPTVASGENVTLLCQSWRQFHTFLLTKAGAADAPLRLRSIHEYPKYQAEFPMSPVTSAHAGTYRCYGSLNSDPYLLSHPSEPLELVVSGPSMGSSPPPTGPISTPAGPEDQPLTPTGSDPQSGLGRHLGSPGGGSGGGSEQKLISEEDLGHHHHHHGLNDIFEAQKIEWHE
Kind of test: SPR Biacore T200, 37 C; antibody captured on protein A/G chip, monomeric hILT4 as analyte; kinetic fit. As for the experimental part:
The binding kinetics of the parent and germline reversion mutant anti-hILT4 antibodies (in the context of IgG1.3) were measured via Surface Plasmon Resonance (SPR) using a Biacore® T200 instrument. The assay temperature was 37° C. and the running buffer was PBS pH 7.4 supplemented with 0.05% Tween-20. Allanti-hILT4 antibodies were captured on a CM4 chip with pre-immobilized protein A/G (Pierce Thermo Scientific catalog number 21186). […] Monomeric human ILT4 was injected as analyte. […] The hILT4 used in this experiment, comprising the extracellular region of hILT4 linked to a His-Avi tag, consists of the following amino acid sequence: […]
On the technique in general: In SPR one partner is held on a chip, and binding of the other changes the refractive index at the surface.

In test [3] the target is T2, hILT4-His-Avi tag. Put plainly: SPR Biacore T200, 37 C; antibody captured by anti-human Fc on CM4 chip, hILT4-His-Avi as analyte; 1:1 Langmuir fit. Here is the method:
The running buffer was 10 mM HEPES pH 7.4 supplemented with 0.05% Tween-20 and 1 g/L BSA. All anti-ILT4 antibodies were captured on a CM4 chip with pre-immobilized anti-human Fc capture antibody from Southern Biotech (catalog number 2081-01). […] All data were double-referenced and fitted to a 1:1 Langmuir model with mass transport using Biacore T200 Evaluation Software version 3.1.

T1 sequence (Q8N423 other isoform, or with tags, fused parts or gaps): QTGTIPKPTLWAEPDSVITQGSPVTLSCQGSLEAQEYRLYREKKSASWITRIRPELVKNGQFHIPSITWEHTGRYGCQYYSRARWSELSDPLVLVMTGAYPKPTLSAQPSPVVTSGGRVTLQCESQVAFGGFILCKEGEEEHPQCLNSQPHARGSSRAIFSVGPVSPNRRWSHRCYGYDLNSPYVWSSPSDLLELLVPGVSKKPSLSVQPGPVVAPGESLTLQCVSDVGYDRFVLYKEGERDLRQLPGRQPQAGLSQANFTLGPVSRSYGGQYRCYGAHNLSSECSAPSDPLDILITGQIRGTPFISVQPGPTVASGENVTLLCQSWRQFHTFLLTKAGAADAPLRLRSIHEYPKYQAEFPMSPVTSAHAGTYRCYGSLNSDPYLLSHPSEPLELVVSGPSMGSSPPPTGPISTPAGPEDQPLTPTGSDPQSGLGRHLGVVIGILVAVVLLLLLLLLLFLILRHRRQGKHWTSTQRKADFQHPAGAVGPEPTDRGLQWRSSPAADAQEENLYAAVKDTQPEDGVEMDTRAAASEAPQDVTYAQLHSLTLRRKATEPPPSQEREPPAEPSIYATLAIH

B1: 2E5.A11 (antibody, V domains shown)
VH: QVQLVESGGGVVQPGRSLRLSCTASGFTFSNYGMHWVRQAPGKGLEWVAVIWYDGSNEYYAESVKGRLTISRDNSKNTLYLQVNSLRAEDTAVYYCARDPFYGSGNYFDYWGQGTLVTVSS
VL: not shown
notes: Hybridoma antibody (human IgG / human kappa), tested as hybridoma supernatant
Consider B1, for which the EC50 in test [1] amounted to 0.0986 µg/mL.

B2: 21D9.b.hIgG1.3 (antibody)
heavy: EVQLLESGGGLVQPGGSLRLSCATSGFTFSNYAMNWVRQAPGKGLEWISVISVSGGSTYYADSVKGRFTISRDNSKNTLYLQMNSLRAEDTAVYYCAKDYYYDSGSYYDSFFDYWGQGTLVTVSSASTKGPSVFPLAPSSKSTSGGTAALGCLVKDYFPEPVTVSWNSGALTSGVHTFPAVLQSSGLYSLSSVVTVPSSSLGTQTYICNVNHKPSNTKVDKRVEPKSCDKTHTCPPCPAPEAEGAPSVFLFPPKPKDTLMISRTPEVTCVVVDVSHEDPEVKFNWYVDGVEVHNAKTKPREEQYNSTYRVVSVLTVLHQDWLNGKEYKCKVSNKALPAPIEKTISKAKGQPREPQVYTLPPSREEMTKNQVSLTCLVKGFYPSDIAVEWESNGQPENNYKTTPPVLDSDGSFFLYSKLTVDKSRWQQGNVFSCSVMHEALHNHYTQKSLSLSPG
light: not shown
notes: Germline reversion mutant of 21D9 (VH G2V, D10G); light chain of 21D9; IgG1.3
In the test with hILT4-His-Avi tag [2], B2 gave a Kd of 0.34 nM, an app. act. of 90%, a koff of 0.0011 s⁻¹ and a kon of 3.1e+06 M⁻¹ s⁻¹.

B3: 21D9.c.hIgG1.3 (antibody, V domains shown)
VH: EVQLLESGGDLVQPGGSLRLSCAASGFTFSNYAMNWVRQAPGKGLEWISVISVSGGSTYYADSVKGRFTISRDNSKNTLYLQMNSLRAEDTAVYYCAKDYYYDSGSYYDSFFDYWGQGTLVTVSS
VL: not shown
notes: Germline reversion mutant of 21D9; light chain of 21D9; IgG1.3; also called 21D9.VH-G2V/T24A.IgG1.3
In the test with hILT4-His-Avi tag [2], B3 showed a Kd of 0.42 nM, an app. act. of 97%, a koff of 0.0012 s⁻¹ and a kon of 3e+06 M⁻¹ s⁻¹.

B4: 21D9.d.hIgG1.3 (antibody, V domains shown)
VH: B3 VH with A24T, I48V
VL: not shown
notes: Germline reversion mutant of 21D9; light chain of 21D9; IgG1.3; also called 21D9.VH-G2V/I48V
In the test with hILT4-His-Avi tag [2], B4 gave a Kd of 0.35 nM, an app. act. of 84%, a koff of 0.0011 s⁻¹ and a kon of 3.1e+06 M⁻¹ s⁻¹.

B5: 10F10.4 (antibody, human IgG1, kappa, V domains shown)
VH: QVQLVESGGGVVQPGRSLRLSCAASGFTFSSYAMHWVRQAPGKGLEWVAIISYDEYNKYYADSVKGRFTISRDNSKNTLYLQMNSLRAEDTAVYYCAREWVGIRYWGQGTLVTVSS
VL: AIQLTQSPSSLSASVGDRVTITCRASQGISSALAWFQQKPGKAPKLLIYDASSLESGVPSRFSGSGSGTDFTLTISSLQPEDFATYYCQQFNSYPITFGQGTRLEIKR
notes: 10F10 with only the light chain reversion T63S
Turning to B5, in the test with hILT4-His-Avi tag [3], the Kd was determined as 22 nM, the app. act. amounted to 117%, the koff was 0.027 s⁻¹ and the kon was 1.2e+06 M⁻¹ s⁻¹.

B6: 9G4 (antibody, V domains shown)
VH: QVQLQESGPGLVKPSETLSLTCTVSGGSISSYYWNWIRQPPGKGLEWLGYIYYSGSTKYNPSLKSRVTISVDTSKNQFSLKLSSVTAADTAVYYCASSGWYYFDYWGQGTLVTVSS
VL: EIVLTQSPATLSLSPGERATLSCRASQSVSSYLAWYQQKPGQAPRLLIYDASNRATGIPARFSGSGSGTDFTLTISSLEPEDFAGYYCQQRSYWPWTFGQGTKVEIK
notes: Hybridoma antibody (human IgG / human kappa), tested as hybridoma supernatant; also called 9G4 (hybridoma)
Turning to B6, in test [1], the concentration giving a half-maximal response (EC50) came out at 2.84 µg/mL.

B7: 21D9.H11 (antibody, V domains shown)
VH: B3 VH with V2G, A24T
VL: not shown
notes: Hybridoma antibody (human IgG / human kappa), tested as hybridoma supernatant; also called 21D9 (hybridoma)
In the case of B7, in test [1], the EC50 came out at 0.0174 µg/mL.

B8: 9C8.A6 (antibody, V domains shown)
VH: QVQLVQSGAEVKKPGASVKVSCKASGYTFTSSDINWVRQATGQGLEWMGWMNPNSGHTGYAQKFQDRVTLTRDTSISTAYMELSSLRSEDSAVYYCARGGNSIDWGFSYYGLDVWGQGTTVTVSS
VL: AIQLTQSPSSLSASVGDRVTITCRASQGISSALAWYQQKPGKAPKLLIYDASSLESGVPSRFSGSGSGTDFTLTISSLQPEDFATYYCQQFNSYPFTFGPGTKVDIK
notes: Hybridoma antibody (human IgG / human kappa from transgenic mice), tested as hybridoma supernatant
The molecule B8 registered an EC50 in test [1] of 0.189 µg/mL.

B9: 24E5.A7 (antibody, V domains shown)
VH: EVQLLESGGGLVQPGGSLRLSCAASGFTFSSYVMSWVRQAPGKGLEWVSGISGSGGSTYYADSVKGRFTISRDNSKNTLYLQMNSLRAEDTAVYYCAKDQDIIAAYYFVYWGQGTLVTVSS
VL: DIQMTQSPSSLSASVGDRVTITCRASQGISSWLAWYQQKPEKAPKSLIYAASSLQSGVPSRFSGSGSGTDFTLTISSLQPEDFATYYCQQYNSYPLTFGGGTKVEIK
notes: as for B1
With B9, the EC50 in test [1] was found to be 0.268 µg/mL.

A word on the EC50: it is the midpoint of the concentration-response curve. A high value points to lower potency in that assay. One may read the Kd as the constant that tells how readily two partners part at equilibrium. Broadly, the koff is a measure of how fast the partners let go of each other. As usually defined, the kon is the second-order rate constant of association. The low end stands for slower complex formation, the high end for faster complex formation.
